Results taken from the supplement of paper PMC12338614.
± gives the uncertainty stated by the source.

B1: library; numbered along this chain (parent)
chain: MEVVDPQQLGMFTEGELMSVGMDTFIHRIDSTEVIYQPRRKRAKLIGKYLMGDLLGEGSYGKVKEVLDSETLCRRAVKILKKKKLRRIPNGEANVKKEIQLLRRLRHKNVIQLVDVLYNEEKQKMYMVMEYCVCGMQEMLDSVPEKRFPVCQAHGYFCQLIDGLEYLHSQGIVHKDIKPGNLLLTTGGTLKISDLGVAEALHPFAADDTCRTSQGSPAFQPPEIANGLDTFSGFKVDIWSAGVTLYNITTGLYPFEGDNIYKLFENIGKGSYAIPGDCGPPLSDLLKGMLEYEPAKRFSIRQIRQHSWFRKKHPPAEAPVPIPPSPDTKDRWRSMTVVPYLEDLHGADEDEDLFDIEDDIIYTQDFTVPGQVPEEEASHNGQRRGLPKAVCMNGTEAAQLSTKSRAEGRAPNPARKACSASSKIRRLSACKQQ

Variants of: B1
Assay: STK11 functional score (HeLa growth suppression), rescaled enrichment; synonymous median = 1, nonsense median = 0 (normalised score)
Settings: with HeLa; variant type: missense
How it was run: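 In HeLa, Bxb1 integrated POPCode codon-randomised libraries of codon-optimised STK11 at an AAVS1 landing pad; three regions were each transfected three times. Integrants, marked as BFP-negative and mCherry-positive, were FACS-sorted 4–5 days after electroporation and expanded for about two weeks before tiled gDNA amplicons were sequenced on NextSeq (~2 million reads per tile). Each functional score is a post/pre-selection log ratio corrected to wild type, rescaled to the synonymous and nonsense medians, and merged across codons and replicate transfections, with error estimated by bootstrapping.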

Variant | STK11 functional score
MEVVDPQQLGMFTEGELMSVGMDTFIHRIDSTEVIYQPRRKRAKLIGKYLMGDLLGEGSYGKVKEVLDSETLCRRAVKILKKKKLRRIPNGEANVKKEIQLLRRLRHKNVIQLVDVLYNEEKQKMYMVMEYCVCGMQEMLDSVPEKRFPVCQAHGYFCQFIDGLEYLHSQGIVHKDIKPGNLLLTTGGTLKISDLGVAEALHPFAADDTCRTSQGSPAFQPPEIANGLDTFSGFKVDIWSAGVTLYNITTGLYPFEGDNIYKLFENIGKGSYAIPGDCGPPLSDLLKGMLEYEPAKRFSIRQIRQHSWFRKKHPPAEAPVPIPPSPDTKDRWRSMTVVPYLEDLHGADEDEDLFDIEDDIIYTQDFTVPGQVPEEEASHNGQRRGLPKAVCMNGTEAAQLSTKSRAEGRAPNPARKACSASSKIRRLSACKQQ [L160F] | 0.36 ± 0.21
MEVVDPQQLGMFTEGELMSVGMDTFIHRIDSTEVIYQPRRKRAKLIGKYLMGDLLGEGSYGKVKEVLDSETLCRRAVKILKKKKLRRIPNGEANVKKEIQLLRRLRHKNVIQLVDVLYNEEKQKMYMVMEYCVCGMQEMLDSVPEKRFPVCQAHGYFCQLIDGLEYLHSQGIVHKDIKPGNLLLTTGGTLKISDLGVAEALHPFAADDTCRTSQGSPAFQPPEIANGLDTFSGFKVDIWSAGVTLYNITTGLYPFEGDNIYKLFENIGKGSYAIPGDCGPPLSDLLKGMLEYEPAKRFSIRQIRQHSWFRKKHPPAEAPVPIPPSPDTKDRWRSMTVVPYLEDLHGADEDEDLFDIEDDIIYTQDFTVPGQVPEEEASHNGQRRGLPKAVCMNGTEAAQLSTKSRAEGRAPNPMRKACSASSKIRRLSACKQQ [A414M] | 1.56 ± 0.22
MEVVDPQQLGMFTEGELMSVGMDTFIHRIDSTEVIYQPRRKRAKLIGKYLMGDLLGEGSYGKVKEVLDSETLCRRAVKILKKKKLRRIPNGEANVKKEIQLLRRLRHKNVIQLVDVLYNEEKQKMYMVMEYCVCGMQEMLDSVPEKRFPVCQAHGYFCQLIDGLEYLHSQGIVHKDIKPGNLLLTTGGTLKISDLGVAEALHPFAADDTCRTSQGSPAFQPPEIANGLDTFSGFKVDIWSAGVTLYNITTGLYPFEGDNIYKLFENIGKGSYAIPGDCGPPLSDLLKGMLEYEPAKRFSIRQIRQHSWFRKKHPPAEAPVPIPPSPDTKDRWRSMTVVPYLEDLHGADEDEDLFDIEEDIIYTQDFTVPGQVPEEEASHNGQRRGLPKAVCMNGTEAAQLSTKSRAEGRAPNPARKACSASSKIRRLSACKQQ [D358E] | 0.693 ± 0.27
MEVVDPQQLGMFTEGELMSVGMDTFIHRIDSTEVIYQPRRKRAKLIGKYLMGDLLGEGSYGKVKEVLDSETLCRRAVKILKKKKLRRIPNGEANVKKEIQLLRRLRHKNVIQLVDVLYNEEKQKMYMVMEYCVCGMQEMLDSVPEKRFPVCQAHGYFCQLIDGLEYLHSQGIVHKDIKPGNLLLTTGGTLKISDLGVAEALHPFAADDTCRTSQGSPAFQPPEIANGLDTFSGFKVDIWSAGVTLYNITTGLYPFEGDNIYKLFENIGKGSYAIPGDCGPPLSDLLKGMLEYEPAKRFSIRQIRQHSWFRKKHPPAEAPVPIPPSPDTKDRWRSMTVVPYLEDLHGADEDEDLFDIEDDIIYTQDFTVPGQVPREEASHNGQRRGLPKAVCMNGTEAAQLSTKSRAEGRAPNPARKACSASSKIRRLSACKQQ [E374R] | 1.61 ± 0.28
MEVVDPQQLGMFTEGELMSVGMDTFIHRIDSTEVIYQPRRKRAKLIGKYLMGDLLGEGSYGKVKEVLDSETLCRRAVKILKKKKLRRIPNGEANVKKEIQLLRRLRHKNVIQLVDVLYNEEKQKMYMVMEYCVCGMQEMLDSVPEKRFPVCQAHGYFCQLIDGLEYLHSQGIVHKDIKPGNLLLTTGGTLKISDLGVAEALHPFAADDTCRTSQGSPAFQPPEIANGLDTFSGFKVDIWSAGVTLYNITTGLYPFEGDNIYKLFENIGKGSYAIPGDCGPPLSDLLKGMLEYEPAKRFSIRQIRQHSWFRKKHPPAEAPVPIPPSPDTKDRWRSMTVVPYLEDLHGADEDEDLFDIEDDIIYTQDFTVPGQVPEEEASHNGQRRGLPKAVCMNGTEAAQLSTKSRAEGRAPNPARKACSASSKIRRHSACKQQ [L427H] | 1.4 ± 0.25
MEVVDPQQLGMFTEGELMSVGMDTFIHRIDSTEVIYQPRRKRAKLIGKYLMGDLLGEGSYGKVKEVLDSETLCRRAVKILKKKKLRRIPNGEANVKKEIQLLRRLRHKNVIQLVDVLYNEEKQKMYMVMEYCVCGMQEMLDSVPEKRFPVCQAHGYFCQLIDGLEYLHSQGIVHKDIKPGNLLLTTGGTLKISDLGVAEALHPFAADDTCRTSQGSPAFQPPEIANGLDTFSGFKVDIWSAGVTLYNITTGLYPFEGDNIYKLFEIIGKGSYAIPGDCGPPLSDLLKGMLEYEPAKRFSIRQIRQHSWFRKKHPPAEAPVPIPPSPDTKDRWRSMTVVPYLEDLHGADEDEDLFDIEDDIIYTQDFTVPGQVPEEEASHNGQRRGLPKAVCMNGTEAAQLSTKSRAEGRAPNPARKACSASSKIRRLSACKQQ [N266I] | 1.38 ± 0.35
MEVVDPQQLGMFTEGELMSVGMDTFIHRIDSTEVIYQPRRKRAKLIGKYLMGDLLGEGSYGKVKEVLDSETLCRRAVKILKKKKLRRIPNGEANVKKEIQLLRRLRHKNVIQLVDVLYNEEKQKMYMVMEYCVCGMQEMLDSVPEKRFPVCQAHGYFCQLIDGLEYLHSQGIVHKDIKPGNLLLTTGGTLKISDLGVAEALHPFAADDTCRTSQGSPAFQPPCIANGLDTFSGFKVDIWSAGVTLYNITTGLYPFEGDNIYKLFENIGKGSYAIPGDCGPPLSDLLKGMLEYEPAKRFSIRQIRQHSWFRKKHPPAEAPVPIPPSPDTKDRWRSMTVVPYLEDLHGADEDEDLFDIEDDIIYTQDFTVPGQVPEEEASHNGQRRGLPKAVCMNGTEAAQLSTKSRAEGRAPNPARKACSASSKIRRLSACKQQ [E223C] | 1.03 ± 0.53
MEVVDPQQLGMFTEGELMSVGMDTFIHRIDSTEVIYQPRRKRAKLIGKYLMGDLLGEGSYGKVKEVLDSETLCRRAVKILKKKKLRRIPNGEANVKKEIQLLRRLRHKNVIQLVDVLYNEEKQKMYMVMEYCVCGMQEMLDSVPEKRFPVCQAHGYFCQLIDGLEYLHSQGIVHKDIKPGNLLLTTGGTLKISDLGVAEALHPFAADDTCRTSQGSPAFQPPEIANGLDTFSGFKVDIWSAGVTLYNITTGLYPFEGDNIYKLFENIGKGSYAIPGDCGPPLSSLLKGMLEYEPAKRFSIRQIRQHSWFRKKHPPAEAPVPIPPSPDTKDRWRSMTVVPYLEDLHGADEDEDLFDIEDDIIYTQDFTVPGQVPEEEASHNGQRRGLPKAVCMNGTEAAQLSTKSRAEGRAPNPARKACSASSKIRRLSACKQQ [D284S] | 1.27 ± 0.11
MEVVDPQQLGMFTEGELMSVGMDTFIHRIDSTEVIYQPRRKRAKLIGKYLMGDLLGEGSYGKVKEVLDSETLCRRAVKILKKKKLRRIPNGEANVYKEIQLLRRLRHKNVIQLVDVLYNEEKQKMYMVMEYCVCGMQEMLDSVPEKRFPVCQAHGYFCQLIDGLEYLHSQGIVHKDIKPGNLLLTTGGTLKISDLGVAEALHPFAADDTCRTSQGSPAFQPPEIANGLDTFSGFKVDIWSAGVTLYNITTGLYPFEGDNIYKLFENIGKGSYAIPGDCGPPLSDLLKGMLEYEPAKRFSIRQIRQHSWFRKKHPPAEAPVPIPPSPDTKDRWRSMTVVPYLEDLHGADEDEDLFDIEDDIIYTQDFTVPGQVPEEEASHNGQRRGLPKAVCMNGTEAAQLSTKSRAEGRAPNPARKACSASSKIRRLSACKQQ [K96Y] | 1.23 ± 0.31
MEVVDPQQLGMFTEGELMSVGMDTFIHRIDSTEVIYQPRRKRAKLIGKYLMGDLLGEGSYGKVKEVLDSETLCRRAVKILKKKKLRRIPNGEANVKKEIQLLRRLRHKNVIQLVDVLYNEEKQKMYMVMEYCVCGMQEMLDSVPEKRFPVCQAHGYFCQLIDGLEYLHSQGIVHKDIKPGNLLLTTGGTLKISDLGVAEALHPFAADDTCRTSQGSPAFQPPEIANGLDTFSGFKVDIWSAGVTLYNITTGLYPFEGDNIYKLFENIGKGSYAIPGDCGPPLSDLLKGMLEYEPAKRFSIRQIRQHSWFRKKHPPAEAPVPIPPSPDTKDRWRSMTVVPYLEDLHGADEDEDLFDIEDDIIYTQDFTVPGQVPEEEASHNGQRRGLPKAVCMNGTEAAQLSTKSRAEGRAPNPARKACLASSKIRRLSACKQQ [S419L] | 1.17 ± 0.14
MEVVDPQQLGMFTEGELMSVGMDTFIHRIDSTEVIYQPRRKRAKLIGKYLMGDLLGEGSYGKVKEVLDSETLCRRAVKILKKKKLRRIPNGEANVKKEIQLLRRLRHKNVIQLVDVLYNEEKQKMYMVMEYCVCGMQEMLDSVPEKRFPVCQAHGYFCQLIDGLEYLHSQGIVHKDIKPGNLLLTTGGTLKIGDLGVAEALHPFAADDTCRTSQGSPAFQPPEIANGLDTFSGFKVDIWSAGVTLYNITTGLYPFEGDNIYKLFENIGKGSYAIPGDCGPPLSDLLKGMLEYEPAKRFSIRQIRQHSWFRKKHPPAEAPVPIPPSPDTKDRWRSMTVVPYLEDLHGADEDEDLFDIEDDIIYTQDFTVPGQVPEEEASHNGQRRGLPKAVCMNGTEAAQLSTKSRAEGRAPNPARKACSASSKIRRLSACKQQ [S193G] | 0.596 ± 0.24
MEVVDPQQLGMFTEGELMSVGMDTFIHRIDSTEVIYQPRRKRAKLIGKYLMGDLLGEGSYGKVKEVLDSETLCRRAVKILKKKKLRRIPNGEANVKKEIQLLRRLRHKNVIQLVDVLYNEEKQKMYMVMEYCVCGMQEMLDSVPEKRFPVCQAHGYFCQLIDGLEYLHSQGIVHKDIKPGNLLLTTGGTLKISDLGVAEALHPFAADDTCRTSQGSPAFQPPEIANGLDTFSGFNVDIWSAGVTLYNITTGLYPFEGDNIYKLFENIGKGSYAIPGDCGPPLSDLLKGMLEYEPAKRFSIRQIRQHSWFRKKHPPAEAPVPIPPSPDTKDRWRSMTVVPYLEDLHGADEDEDLFDIEDDIIYTQDFTVPGQVPEEEASHNGQRRGLPKAVCMNGTEAAQLSTKSRAEGRAPNPARKACSASSKIRRLSACKQQ [K235N] | 0.877 ± 0.28
MEVVDPQQLGMFTEGELMSVGMDTFIHRIDSTEVIYQPRRKRAKLIGKYLMGDLLGEGSYGKVKEVLDSETLCRRAVKILKKKKLRRIPNGEANVKKEIQLLRRLRHKNVIQLVDVLYNEEKQKMYMVMEYCVCGMQEMLDSVPEKRFPVCQAHGYFCQLIDGLEYLHSQGIVHKDIKPGNLLLTTGGTLKISDLGVAEALHPFAADDTCRTSQGSPAFQPPEIANGLDTFSGFKVDIWSAGVTLYNITTGLYPFEGDNIYKLFENIGKGSYAIPGDCGPPLSDLLKGMLEYEPAKRFSISQIRQHSWFRKKHPPAEAPVPIPPSPDTKDRWRSMTVVPYLEDLHGADEDEDLFDIEDDIIYTQDFTVPGQVPEEEASHNGQRRGLPKAVCMNGTEAAQLSTKSRAEGRAPNPARKACSASSKIRRLSACKQQ [R301S] | 1.49 ± 0.35
MEVVDPQQLGMFTEGELMSVGMDTFIHRIDSTEVIYQPRRKRAKLIGKYLMGDLLGEGSYGKVKEVLDSETLCRRAVKILKKKKLRRIPNGEANVKKEIQLLRRLRHKNVIQLVDVLYNEEKQKMYMVMEYCVCGMQEMLDSVPEKRFPVCQAHGYFCQLFDGLEYLHSQGIVHKDIKPGNLLLTTGGTLKISDLGVAEALHPFAADDTCRTSQGSPAFQPPEIANGLDTFSGFKVDIWSAGVTLYNITTGLYPFEGDNIYKLFENIGKGSYAIPGDCGPPLSDLLKGMLEYEPAKRFSIRQIRQHSWFRKKHPPAEAPVPIPPSPDTKDRWRSMTVVPYLEDLHGADEDEDLFDIEDDIIYTQDFTVPGQVPEEEASHNGQRRGLPKAVCMNGTEAAQLSTKSRAEGRAPNPARKACSASSKIRRLSACKQQ [I161F] | -0.101 ± 0.25
